Laboratory results published in patent publication US5470740.

Test system: NsiI restriction endonuclease (Neisseria sicca BRL 397)
Assay: cleavage_in_vitro
Conditions: crude sonicated extract, REact 3 buffer, 37 C, 1 h; each of pUC123 and pUC140

lambda DNA
activity (units/g cells): > 26000
